According to patent US20230090114A1, “METHODS FOR PROMOTING WEIGHT LOSS” (89BIO LTD., priority 2020, published 2023):

What was measured:
[1] = Indirect calorimetry: VO2, VCO2, EE, RER (METABOpack sessions); type: in vivo, CD-1 mice
Protocol: The Physiocage System allows recording the O2 consumption (VO2) and the CO2 production (VCO2) by indirect calorimetry. For each animal, both VO2 and VCO2 were recorded for 3 min every 30 minutes and the mean values were calculated by the system.
Energy Expenditure (EE) and Respiratory Exchange Ratio (RER) were calculated with formulas that are based on VO2 and VCO2 values: […]
Analysis of these parameters was performed as follows: for each mouse, the mean values were calculated from the corresponding recordings for each nycthemeral phase (Diurnal Phase or DP, Nocturnal Phase or NP and Whole day or WD). The means per nycthemeral phase were then calculated for each group for statistical comparisons.

[2] = Diet-induced NASH model in mice; type: in vivo; conditions: 0.3 mg/kg, 3 times/week
[3] = T1, whatever the dose, vs vehicle
[4] = T2, DP and WD, whatever the dose, vs Liraglutide
[5] = T2, whatever the dose, vs vehicle
[6] = T14, DP, 3 mg/kg, vs Liraglutide
[7] = T14, NP and WD, whatever the dose, vs Liraglutide
[8] = T14, NP and WD, whatever the dose, vs vehicle
[9] = T14, between the three 89BIO-100 groups
[10] = T15, NP and WD, 1 and 3 mg/kg, vs vehicle
[11] = T15, between the three 89BIO-100 groups
[12] = T15, whatever the phase, 1 and 3 mg/kg, vs Liraglutide
[13] = T27, NP, whatever the dose, vs vehicle
[14] = T27, WD, 0.3 and 1 mg/kg, vs Liraglutide
[15] = T27, WD, 0.3 and 1 mg/kg, vs vehicle
[16] = T27, between the three 89BIO-100 groups

B1: Mutant FGF21-GalNAc-SA-PEG-20 kDa (conjugate)
chain: MHPIPDSSPLLQFGGQVRQRYLYTDDAQQTEAHLEIREDGTVGGAADQSPESLLQLKALKPGVIQILGVKTSRFLCQRPDGALYGSLHFDPEACSFRELLLEDGYNVYQSEAHGLPLHLPGNKSPHRDPAPRGPARFLPLPGLPPALPEPPGILAPQPPDVGSSDPLSMVGPTQGASPSYAS
RER ([1]; T1, NP and WD, whatever the dose, vs Liraglutide): increase in RER | VCO2 ([1]; T1, NP, whatever the dose, vs Liraglutide): increase in VCO2 | RER ([1]; T1, between 89BIO-100 groups): no significant difference | VCO2 ([1]; T1, between all 89BIO-100 groups): no significant difference | RER [1, 3]: No significant difference | VCO2 [1, 3]: No significant difference | EE [1, 4]: increase in EE | VO2 [1, 4]: increase in VO2 | EE ([1]; T2, between 89BIO-100 groups): no significant difference | VO2 ([1]; T2, between the three 89BIO-100 groups): no significant difference | EE [1, 5]: No significant difference | VO2 [1, 5]: No significant difference | EE [1, 6]: increased | VO2 [1, 6]: increased | EE ([1]; T14, DP, 3 mg/kg, vs vehicle): increased | VO2 ([1]; T14, DP, 3 mg/kg, vs vehicle): increased | EE [1, 7]: increase in EE | RER [1, 7]: decrease in RER | VO2 [1, 7]: increase in VO2 | EE [1, 8]: increased | VO2 [1, 8]: increased | VCO2 ([1]; T14, NP, whatever the dose, vs Liraglutide): increase in VCO2 | VCO2 ([1]; T14, NP, whatever the dose, vs vehicle): increased | VCO2 ([1]; T14, WD, 1 and 3 mg/kg, vs Liraglutide): increased | VCO2 ([1]; T14, WD, 1 and 3 mg/kg, vs vehicle): increased | EE [1, 9]: no significant difference | VCO2 [1, 9]: no significant difference | VO2 [1, 9]: no significant difference | RER ([1]; T14, whatever the dose, vs vehicle): No significant difference | EE ([1]; T15, DP, 1 mg/kg, vs vehicle): increased | VCO2 ([1]; T15, DP, 1 mg/kg, vs vehicle): increased | VO2 ([1]; T15, DP, 1 mg/kg, vs vehicle): increased | EE [1, 10]: increased | VCO2 [1, 10]: increased | VO2 [1, 10]: increased | EE [1, 11]: no significant difference | VCO2 [1, 11]: no significant difference | VO2 [1, 11]: no significant difference | EE [1, 12]: increase in EE | VCO2 [1, 12]: increase in VCO2 | VO2 [1, 12]: increase in VO2 | VCO2 ([1]; T27, NP and WD, 0.3 and 1 mg/kg, vs vehicle): increased | VCO2 ([1]; T27, NP and WD, dose of 1, vs Liraglutide): increase in VCO2 | VO2 ([1]; T27, NP, 1 and 3 mg/kg, vs Liraglutide): increase in VO2 | EE ([1]; T27, NP, dose of 1, vs Liraglutide): increase in EE | EE [1, 13]: increased | VO2 [1, 13]: increased | EE [1, 14]: increased | VO2 [1, 14]: increase in VO2 | EE [1, 15]: increased | VO2 [1, 15]: increased | EE [1, 16]: no significant difference | VCO2 [1, 16]: no significant difference | VO2 [1, 16]: no significant difference | thermogenesis ([1]; concluded from energy expenditure effects): increased | energy expenditure ([1]; summary, second (T14/T15) and third (T27) METABOpack session, vs Vehicle): increase in energy expenditure | efficacy in Diet-induced NASH model [2]: effective
